Broadly, the Kd is the concentration at which binding is half-saturated. Low values mean a tighter complex, high ones a looser complex. What is called stoichiometry N is a count of units in the complex or per binding partner.

T1: RIPK2^1−300 (human, UniProt O43353 1-300, labelled with the Monolith Protein labelling kit RED-NHS second generation (primary amines) for MST only)
T1 chain: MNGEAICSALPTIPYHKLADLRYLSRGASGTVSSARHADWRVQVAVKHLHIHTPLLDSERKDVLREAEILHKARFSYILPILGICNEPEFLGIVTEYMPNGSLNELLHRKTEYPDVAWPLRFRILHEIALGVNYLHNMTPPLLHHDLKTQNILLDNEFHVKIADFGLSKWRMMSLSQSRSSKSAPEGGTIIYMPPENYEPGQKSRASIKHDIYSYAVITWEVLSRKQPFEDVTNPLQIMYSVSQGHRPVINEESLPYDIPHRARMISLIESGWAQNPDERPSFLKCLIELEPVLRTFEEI

B1: XIAP BIR2^93−240 (domain or fragment, human)
chain: GPINGFYLENSATQSTNSGIQNGQYKVENYLGSRDHFALDRPSETHADYLLRTGQVVDISDTIYPRNPAMYSEEARLKSFQNWPDYAHLTPRELASAGLYYTGIGDQVQCFCCGGKLKNWEPCDRAWSEHRRHFPNCFFVLGRNLNIRSE
notes: two additional residues after the P3C cleavage site; XIAP, human, residues 93-240; source: E. coli Rosetta 2, purified (glutathione sepharose, P3C cleavage, SEC); not shown: GST, N-terminal, cleaved
B2: XIAP BIR2^124–240 (domain or fragment, human)
chain: GPRDHFALDRPSETHADYLLRTGQVVDISDTIYPRNPAMYSEEARLKSFQNWPDYAHLTPRELASAGLYYTGIGDQVQCFCCGGKLKNWEPCDRAWSEHRRHFPNCFFVLGRNLNIRSE
notes: two additional residues after the P3C cleavage site; XIAP, human, linker region (124-154) and BIR2 domain, residues 124-240; also called long BIR2 construct; source: E. coli Rosetta 2, purified (glutathione sepharose, P3C cleavage, SEC); not shown: GST, N-terminal, cleaved
B3: XIAP BIR2AG^124–240 (domain or fragment, human)
chain: B2 chain with C81A, C92G
notes: two additional residues after the P3C cleavage site; XIAP, human, residues 124-240 with the AG mutations C202A and C213G; For NMR uniformly 15N- or 13C/15N-labelled (M9 medium); also called AG construct (long); ^15N-labeled XIAP BIR2; source: E. coli Rosetta 2, purified (glutathione sepharose, P3C cleavage, SEC); not shown: GST, N-terminal, cleaved
B4: RIPK2^1−300 (domain or fragment, human, UniProt O43353 1-300, looked up)
chain: T1 chain
modifications: labelled with the Monolith Protein labelling kit RED-NHS second generation (primary amines) for MST only
notes: RIPK2, human, kinase domain, residues 1-300; also called kinase domain of RIPK2 (residues 1–300); source: sf21 insect cells (baculovirus), purified (amylose resin, TEV cleavage, anion exchange)
B5: XIAP BIR2^124−263 (domain or fragment, human)
chain: GPRDHFALDRPSETHADYLLRTGQVVDISDTIYPRNPAMYSEEARLKSFQNWPDYAHLTPRELASAGLYYTGIGDQVQCFCCGGKLKNWEPCDRAWSEHRRHFPNCFFVLGRNLNIRSESDAVSSDRNFPNSTNLPRNPSMA
notes: two additional residues after the P3C cleavage site; XIAP, human, residues 124-263; source: E. coli Rosetta 2, purified (glutathione sepharose, P3C cleavage, SEC); not shown: GST, N-terminal, cleaved
B6: RIPK2^1−317 (domain or fragment, human, UniProt O43353 1-317, looked up)
chain: MNGEAICSALPTIPYHKLADLRYLSRGASGTVSSARHADWRVQVAVKHLHIHTPLLDSERKDVLREAEILHKARFSYILPILGICNEPEFLGIVTEYMPNGSLNELLHRKTEYPDVAWPLRFRILHEIALGVNYLHNMTPPLLHHDLKTQNILLDNEFHVKIADFGLSKWRMMSLSQSRSSKSAPEGGTIIYMPPENYEPGQKSRASIKHDIYSYAVITWEVLSRKQPFEDVTNPLQIMYSVSQGHRPVINEESLPYDIPHRARMISLIESGWAQNPDERPSFLKCLIELEPVLRTFEEITFLEAVIQLKKTKLQSV
notes: Incubated with nucleotide (ATP or AMPPCP) and MgCl2 before XIAP BIR2 was added; ATP-MgCl2 is said to promote full phosphorylation; Antiparallel dimer in the complex; also called RIPK2 kinase; RIPK2 wt; source: sf21 insect cells (baculovirus), purified (amylose resin, TEV cleavage, anion exchange)
B7: RIPK2^1−317 K209R (domain or fragment, human, UniProt O43353 1-317, looked up)
chain: B6 chain with K209R
notes: Incubated with 500 μM ATP and 5 mM MgCl2 before XIAP BIR2 was added; also called RIPK2–K209R (recombinant); source: sf21 insect cells (baculovirus), purified as RIPK2 wt
B8: RIPK2^1−317 S282L (domain or fragment, human, UniProt O43353 1-317, looked up)
chain: B6 chain with S282L
notes: Incubated with 500 μM ATP and 5 mM MgCl2 before XIAP BIR2 was added; also called RIPK2–S282L (recombinant); source: sf21 insect cells (baculovirus), purified as RIPK2 wt
B9: RIPK2^1−317 K209A (domain or fragment, human, UniProt O43353 1-317, looked up)
chain: B6 chain with K209A
notes: Incubated with 500 μM ATP and 5 mM MgCl2 before XIAP BIR2 was added; also called RIPK2–K209A (recombinant); source: sf21 insect cells (baculovirus), purified as RIPK2 wt
B10: XIAP BIR2^154–240 (domain or fragment, human, UniProt P98170 154-240, looked up)
chain: YPRNPAMYSEEARLKSFQNWPDYAHLTPRELASAGLYYTGIGDQVQCFCCGGKLKNWEPCDRAWSEHRRHFPNCFFVLGRNLNIRSE
notes: Plasmid pET49, a gift from Katrin Rittinger; also called short BIR2 construct; source: E. coli Rosetta 2, purified (glutathione sepharose, P3C cleavage, SEC); not shown: GST, N-terminal, cleaved
B11: XIAP BIR2AG^154–240 (domain or fragment, human, UniProt P98170 154-240, looked up)
chain: B10 chain with C49A, C60G
notes: XIAP, human, BIR2 domain, residues 154-240 with the AG mutations C202A and C213G; Plasmid pET49, a gift from Katrin Rittinger; also called AG construct (short); source: E. coli Rosetta 2, purified (glutathione sepharose, P3C cleavage, SEC); not shown: GST, N-terminal, cleaved
B12: XIAP BIR2^93−263 (domain or fragment, human)
chain: GPINGFYLENSATQSTNSGIQNGQYKVENYLGSRDHFALDRPSETHADYLLRTGQVVDISDTIYPRNPAMYSEEARLKSFQNWPDYAHLTPRELASAGLYYTGIGDQVQCFCCGGKLKNWEPCDRAWSEHRRHFPNCFFVLGRNLNIRSESDAVSSDRNFPNSTNLPRNPSMA
notes: two additional residues after the P3C cleavage site; XIAP, human, residues 93-263; source: E. coli Rosetta 2, purified (glutathione sepharose, P3C cleavage, SEC); not shown: GST, N-terminal, cleaved

Changes are numbered by the printed parent chain. Names and notes keep the numbering of the source. Values joined by “and” are separate entries in the source; they are usually repeats but may differ in a detail not shown here. Identical values can stand only once.

In data set [1] the target is T1, RIPK2^1−300. Put plainly: MST.
For data set [2], the target named is B4. Put plainly: MST; RIPK2 1-300 labelled with RED-NHS at 20 nM final, XIAP BIR2 constructs titrated from 1.2-2,500 nM; 20 mM Hepes pH 7.5, 150 mM NaCl, 2% glycerol, 0.05% Tween-20; 20°C; one-site binding model, triplicates. The note with it: both partners purified.
The target in data set [3] is B4. Put plainly: native MS; complex fractions reapplied on Superdex 200 10/300 increase in 250 mM ammonium acetate with 1 mM DTT; concentration range of 10 μM. The note with it: both partners purified.
The target of data set [4] is B6. The data set is described as above. The note with it: both partners purified.
Data set [5] concerns the molecule itself. The description is as above.
Data set [6] concerns the molecule itself. Put plainly: SEC; RIPK2 1-317 wt or mutant with 500 μM ATP and 5 mM MgCl2 on ice, XIAP BIR2 154-240 added in excess (1:2), Superdex 200 3.2/300 increase in buffer C; fractions on SDS-PAGE.
Data set [7] has as its target B6. Put plainly: cryo-EM structure; single-particle cryo-EM of the SEC-purified RIPK2 1-317-XIAP BIR2 154-240 complex, Titan Krios 300 keV, untilted and tilted data, 3.15 Å. The note with it: both partners purified.

Molecule B1 gave a Kd with RIPK2^1−300 [1] of 92.9 nM. In the data set with RIPK2^1−300 [2], the binding result was “binds”.

In turn, B2 registered a Kd with RIPK2^1−300 [1] of 85.9 nM. Further, in the data set with RIPK2^1−300 [3], the “stoichiometry N” value was 1 RIPK2 per XIAP BIR2 (printed as the ratio 2:2) and 2 RIPK2 per XIAP BIR2 (printed as the ratio 2:1). On to B3, for which the “stoichiometry N” value in the data set with RIPK2^1−317 [4] was 1 RIPK2 per XIAP BIR2 (printed as the ratio 2:2). Take B4: the “stoichiometry N” value in data set [5] is 2 molecules of RIPK2.

B5 had a Kd with RIPK2^1−300 [1] of 142 nM. Further, the binding result with RIPK2^1−300 [2] was “binds”.

For the molecule B6, the “stoichiometry N” value in data set [5] is 2 molecules of RIPK2. On to B7, for which the binding result in data set [6] was “binds”.

B8: the binding result in data set [6] is “binds”.

In the case of B9, the binding result in data set [6] is given as “binds”.

Turning to B10, the “stoichiometry N” value was 1 RIPK2 per XIAP BIR2 (printed as the ratio 2:2) in the data set with RIPK2^1−317 [4] and 2 RIPK2 per XIAP BIR2 (printed as the ratio 2:1) with RIPK2^1−317 [7]. The molecule further had a Kd with RIPK2^1−300 [2] of 85.6 ± 18.7 nM. For the molecule B11, the “stoichiometry N” value with RIPK2^1−317 [4] was 2 RIPK2 per XIAP BIR2 (printed as the ratio 2:1) and 1 RIPK2 per XIAP BIR2 (printed as the ratio 2:2). B12: the binding result in the data set with RIPK2^1−300 [2] was “binds”.
